Measurements: patent publication US20020161202A1, “Apo-2DcR” (Genentech, Inc., priority 1997, published 2002)

B1: Apo-3/DR3: full length native sequence human TNFR family polypeptide with cytoplasmic death domain; expressed by transfection (protein, UniProt Q93038 1-417, looked up)
chain: MEQRPRGCAAVAAALLLVLLGARAQGGTRSPRCDCAGDFHKKIGLFCCRGCPAGHYLKAPCTEPCGNSTCLVCPQDTFLAWENHHNSECARCQACDEQASQVALENCSAVADTRCGCKPGWFVECQVSQCVSSSPFYCQPCLDCGALHRHTRLLCSRRDTDCGTCLPGFYEHGDGCVSCPTSTLGSCPERCAAVCGWRQMFWVQVLLAGLVVPLLLGATLTYTYRHCWPHKPLVTADEAGMEALTPPPATHLSPLDSAHTLLAPPDSSEKICTVQLVGNSWTPGYPETQEALCPQVTWSWDQLPSRALGPAAAPTLSPESPAGSPAMMLQPGPQLYDVMDAVPARRWKEFVRTLGLREAEIEAVEVEIGRFRDQQYEMLKRWRQQQPAGLGAVYAALERMGLDGCVEDLRSRLQRGP
modifications: full-length
notes: expressed by transfection
B2: Apo-2DcR: full-length native sequence human Apo-2DcR polypeptide, 259 amino acids, GPI-anchored TNFR family member; expressed by transfection (protein)
chain: ATTARQEEVPQQTVAPQQQRHSFKGEECPAGSHRSEHTGACNPCTEGVDYTNASNNEPSCFPCTVCKSDQKHKSSCTMTRDTVCQCKEGTFRNENSPEMCRKCSRCPSGEVQVSNCTSWDDIQCVEEFGANATVETPAAEETMNTSPGTPAPAAEETMNTSPGTPAPAAEETMTTSPGTPAPAAEETMTTSPGTPAPAAEETMTTSPGTPA

How the values were obtained:
[1] = tested on: NF-κB; test: NF-κB activation in HeLa cells transfected with receptor plasmids (electrophoretic mobility shift assay); assay type: cell-based, human; conditions: harvested 24 hours after transfection, FIG. 12A
Protocol: HeLa cells were transfected with pRK5 expression plasmids encoding full-length native sequence Apo-2, DR4 or Apo-3 and harvested 24 hours after transfection. […] Immunol., 153:5274-5284 (1994)], alone or together with a 50-fold excess of unlabelled probe, or with an irrelevant ^32P-labelled synthetic oligonucleotide […] NO: 13). In some samples, antibody to p65/RelA subunits of NF-κB (1 μg/ml; Santa Cruz Biotechnology) was added. DNA binding was analyzed by an electrophoretic mobility shift assay as described by Hsu et al., supra; Marsters et al., supra, and MacKay et al., supra.

[2] = tested on: Apo-2L; test: Binding of radioiodinated Apo-2L to Apo-2DcR-transfected 293 cells; conditions: 125I-Apo-2L; 293 cells transfected with full-length Apo-2DcR vs pRK5; FIG. 4
Chain of Apo-2L (P50591 114-281 limits assumed): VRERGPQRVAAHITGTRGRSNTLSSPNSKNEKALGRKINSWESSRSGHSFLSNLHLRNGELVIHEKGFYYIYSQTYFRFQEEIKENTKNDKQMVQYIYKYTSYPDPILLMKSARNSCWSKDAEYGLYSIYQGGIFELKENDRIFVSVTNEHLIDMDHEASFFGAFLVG
Chain of Apo-2L (O14798 26-236 partner limits assumed): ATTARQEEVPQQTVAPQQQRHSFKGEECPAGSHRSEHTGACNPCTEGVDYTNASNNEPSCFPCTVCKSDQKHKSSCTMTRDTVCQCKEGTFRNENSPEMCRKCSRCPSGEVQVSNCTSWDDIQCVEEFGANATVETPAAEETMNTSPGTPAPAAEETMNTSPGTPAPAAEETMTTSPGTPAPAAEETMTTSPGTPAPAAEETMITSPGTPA
Protocol: To test whether Apo-2DcR binds to Apo-2L, and to assess whether Apo-2DcR is GPI-linked, binding of radioiodinated Apo-2L to Apo-2DcR-transfected 293 cells was analyzed. The effect of pre-treatment of the cells with phosphatidylinositol-specific phospholipase C (PI-PLC) on the binding was also analyzed.
Human 293 cells (ATCC CRL 1573) were plated in 100 mm plates (1×10^6 cells/plate) and transfected with 20 μg/plate pRK5 or pRK5 encoding the full-length Apo-2DcR (described in Example 1, ATCC deposit 209087) using calcium phosphate precipitation. After 24 hours, the cells were harvested in PBS/10 mM EDTA, washed in phosphate buffered saline (PBS), resuspended in 2 ml PBS per original plate and divided into two 1 ml aliquots per transfection. PI-PLC [Treanor et al., Nature, 382:80-83 (1996)] (1 μg/ml) was added to one of the two aliquots derived from each transfection, and the cells were incubated 1 hour at 37° C. The cells were washed and respuspended in 1 ml PBS containing 1% BSA (Sigma), and 0.04 ml aliquots were placed into tubes in triplicate. […] After a 1 hour incubation at room temperature, the cells were washed in ice cold PBS, pelleted, and counted for radioactivity.

[3] = tested on: NF-κB; test: Activation of NF-κB by Apo-2L in Apo-2DcR-transfected 293 cells (electrophoretic mobility shift assay); assay type: cell-based, human; conditions: 293 cells transfected with pRK5-hApo-2DcR, 18 hours; Apo-2L 0.5 μg/ml; FIG. 6
Protocol: In a similar experiment, the 293 cells were transfected by pRK5 or pRK5-hApo-2DcR (20 μg/plate) and analyzed 18 hours later for activation of NF-κB by Apo-2L (0.5 μg/ml), as in Example 10 below.
HeLa cells were transfected with pRK5 expression plasmids encoding full-length native sequence Apo-2, DR4 or Apo-3 and harvested 24 hours after transfection. Nuclear extracts were prepared and 1 μg of nuclear protein was reacted with a ^32P-labelled NF-κB-specific synthetic oligonucleotide probe […] (SEQ ID NO: 12) [see, also, MacKay et al., J. Immunol., 153:5274-5284 (1994)], alone or together with a 50-fold excess of unlabelled probe, or with an irrelevant ^32P-labelled synthetic oligonucleotide […] (SEQ ID NO: 13). In some samples, antibody to p65/RelA subunits of NF-κB (1 μg/ml; Santa Cruz Biotechnology) was added. DNA binding was analyzed by an electrophoretic mobility shift assay as described by Hsu et al., supra; Marsters et al., supra, and MacKay et al., supra.

[4] = tested on: Human 293 cells; test: Apo-2L apoptosis induction in Apo-2DcR-transfected 293 cells (morphology of GFP-positive cells); assay type: cell-based; conditions: 293 cells transfected with pRK5-hApo-2DcR; Apo-2L 0.5 μg/ml; examined over 6 hours; FIG. 5
Protocol: Human 293 cells, which express both DR4 and Apo-2 mRNA (data not shown), were plated in 100 mm plates (1×10^6 cells/plate) and transfected with 3 μg per plate pRK encoding green fluorescent protein (GFP; purchased from Clontech) together with 20 μg/plate pRK5 or pRK5-hApo-2DcR (see Example 2) using calcium phosphate precipitation. After 18 hours, the cells were treated with PBS or with Apo-2L (Pitti et al., supra, 0.5 μg/ml) and examined over 6 hours under a fluorescence microscope equipped with Hoffman optics (which enables clear viewing of non-fixed cells on plastic). GFP-positive cells were identified by green fluorescence and scored for apoptosis by morphologic criteria such as membrane blebbing and cytoplasmic condensation.

Molecule	NF-κB activation upon transfection [1]	amount of specific Apo-2L binding [2]	Apo-2L function as measured by NF-κB activation [3]	responsiveness to Apo-2L as measured by apoptosis induction [4]
B1	activation observed	–	–	–
B2	–	marked increase	inhibits Apo-2L function	markedly reduced
